For the assay, the target named is S. cerevisiae full-length Ty3 integrase (assembled on Ty3 LTR DNA as the Ty3 intasome) (S. cerevisiae). Briefly: cryo-EM structure; minimal integration machinery: Ty3 intasome with TFIIIB on unlabelled 55-bp tD(GUC)K DNA, without TFIIIC; gel filtration in 40 mM Tris pH 7, 80 mM NaCl, 7 mM MgCl2, 1 mM DTT; un-crosslinked; strand-transfer complex, 4.0 Å. For orientation: SEC sorts molecules by how far they enter the pores of the column.

“S. cerevisiae full-length Ty3 integrase (assembled on Ty3 LTR DNA as the Ty3 intasome) (enzyme)” returned a stoichiometry N of 4.

By stoichiometry N is commonly meant the number of molecules, sites or subunits per partner or assembly.

The values above are taken from paper PMC8632968.
